This test addresses T1, 人PDL1蛋白 (human, UniProt Q9NZQ7 19-239, limits assumed).
T1 construct: Bought recombinant protein; also called human PDL1; B7-H1
As to the kind of experiment: non-competitive ELISA, four coating concentrations of PDL1 (1, 0.5, 0.25, 0.125 ug/mL), KA=(n-1)/(nAb'-Ab), mean of 6 values.

T1 sequence (Q9NZQ7 19-239 limits assumed): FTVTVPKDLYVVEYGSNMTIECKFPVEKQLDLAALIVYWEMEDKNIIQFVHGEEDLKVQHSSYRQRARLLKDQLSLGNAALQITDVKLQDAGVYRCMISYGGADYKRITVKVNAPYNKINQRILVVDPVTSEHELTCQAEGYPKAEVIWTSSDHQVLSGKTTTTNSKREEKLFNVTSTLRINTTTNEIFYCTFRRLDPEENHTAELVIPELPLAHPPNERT

B1: 抗人PDL1纳米抗体 Nb2 (VHH)
VHH: QVQLQESGGGSVQAGGSLRLSCIASGVDYNSRTDRMAWFRQVPGKEREGVAAIYTYNNRTYYADSVKGRFTISQDIGKNTVYLQMNSLEPEDTATYYCARDWRFSSGMLDKNMYKYWGQGTQVTVSS
notes: Expressed from pMECS in E. coli TG1, Ni-purified; also called 抗PDL1(Nb2)纳米抗体; not shown: C-terminal HA and His tags from the pMECS vector
Consider B1, for which the Ka is 933000 M⁻¹.

The record behind these values is patent publication CN116023492A (XINJIANG YOUMAI BIOTECHNOLOGY CO LTD, dated 2023).
